Data from the supplement of paper PMC9170038.

System: MS2 coat protein
Assay: apparent KD of MS2 coat protein; designed switch direction (-1 OFF switch, 1 ON switch): -1; higher = weaker reporter binding
Method in brief: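 Designed RNA switches were transcribed on Illumina chips by stalled E. coli RNA polymerase and titrated with SNAP-549-labelled MS2 coat protein from 0.7 or 1.5 nM, doubling to 3 µM. Step length ran from 0.8–1.5 h at the lowest concentration to 10–20 min at the highest. The apparent KD is the median over clusters for each design, from curve-fitted normalised cluster fluorescence.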

[1] = input ligand: microRNA oligo, concentration not stated
[2] = Eterna round: R95, input ligand: FMN 200 uM
[3] = Eterna round: R95, input ligand: microRNA oligo, concentration not stated
[4] = Eterna round: R95, input ligand: none

| Sequence | apparent KD of MS2 coat protein (input ligand: FMN 200 uM) | apparent KD of MS2 coat protein [1] | apparent KD of MS2 coat protein (input ligand: none) | apparent KD of MS2 coat protein [2] | apparent KD of MS2 coat protein [3] | apparent KD of MS2 coat protein [4] |
| --- | --- | --- | --- | --- | --- | --- |
| UAGGGCUGCGGAGGAUAUCCAUAGUGGGCCGGUCGAAGCAUGAGACAUGAGGAUCACCCAUGUCUGGAGAAGGCUGAGCCCUCA [Lequcele] (Eterna round: R96, puzzle: Exclusion NG 2) | 20.8 nM | 12.1 nM | 14.1 nM | – | – | – |
| AGGUGACUGGUGAGGAUAUCGUGUUCGAAAGAACGUGAGAAGGCACAUGAGGAUCACCCAUGUGAUCCUCAUCG [Omei Ex4B A30] (Eterna round: R97, puzzle: Brourd's mod of Exclusion 4) | 101 nM | – | 27 nM | – | – | – |
| GGUGGCUGCGUGAGACAUGAGGAUCACCCAUGUUACCGAACAAAGGAUAUAGAAGCACACAGCUACUAGAAGGUUGAAAAGAAA [Requen] (Eterna round: R96, puzzle: Exclusion NG 3) | 12.2 nM | 16.2 nM | 19.6 nM | – | – | – |
| AAGAAACAUGAGGAUCACCCAUGUGAGGAUAUGAAAAAGAAAAGAAAAGAAAGAAGUUUCAGAAGGCACAAAGG [salish99-ex1_r3_024] (puzzle: Exclusion 1) | – | – | – | 83.8 nM | 41.2 nM | 44.9 nM |
| ACAUGAGGAUCACCCAUGUCAGGCUGGUCCGCUCCGGCUGUUGAGGAUAUAGCUCGGUGUCCGCGCUAGAAGGUGAGGGCCGGC [Aenatbe mod 32] (Eterna round: R96, puzzle: Exclusion NG 3) | 25.3 nM | 19.3 nM | 24.6 nM | – | – | – |
| UUAAUUAAUUGCGCAAGAUCACAUGAGGAUCACCCAUGUAUAUAGGAUAUCAGCUCGUUUAGAGCUGAGAAGGAUAUACAGCGC [ExNG3/3-A2] (Eterna round: R96, puzzle: Exclusion NG 3) | 1320 nM | 536 nM | 488 nM | – | – | – |
| AAUGAUUGACGAGGAUAUUGUGGUAGAUCACGACGAGAAGGCGUCUGUCACAUGAGGAUCACCCAUGUGAGCUUUGUGGAUAGA [Ex NG1 #73] (Eterna round: R96, puzzle: Exclusion NG 1) | 51.6 nM | 37.4 nM | 72.2 nM | – | – | – |
| UAUAUGUCAGGAUAUUAGUAGUAAAUAAAUAAAAUUAUUACUGAGAAGGGACAUGAGGAUCACCCAUGUUCCUC [JR_Ex4_Sub001] (Eterna round: R97, puzzle: Exclusion 4) | 162 nM | – | 22.9 nM | – | – | – |
| CUUCAUUGUUGAGGAUAUAAUUAUAGGAUGUAGUUAGAAGGCGAACAUGAGGAUCACCCAUGUCAGGCAUGGAGACCCUUGACC [Eternabot solution 8] (Eterna round: R96, puzzle: Exclusion NG 1) | – | 308 nM | – | – | – | – |
| CGUCCACAUGAGGAUCACCCAUGUGAGGAUAUCUAGCACGCAGUAGUACUGUGACAUCGGAGAAGGCGUAGGGU [Eternabot (L2) Solution 96] (Eterna round: R97, puzzle: Exclusion 1) | 32.2 nM | – | 21.2 nM | – | – | – |
| CGUCCUGUAGUCAGGAUAUUGUCUCGGAUACGAAACAAGAAGGGACAUGAGGAUCACCCAUGUAAUCAGGACGA [Malc #30 mod 13] (puzzle: Brourd's mod of Exclusion 4) | – | – | – | 19.5 nM | 36.5 nM | 36.5 nM |
| UGACUUCAUAUCACAUGAGGAUCACCCAUGUUAUUCAUCGCGUAGGAUAUCGAGGUUUAUUAUUACGAGAAGGACGUAUUGAUA [JR_ExcNG3_Sub074] (Eterna round: R96, puzzle: Exclusion NG 3) | 61.1 nM | 34.5 nM | 40.7 nM | – | – | – |
